Experimental data from publication PMC4601075, “Specific binding of eukaryotic ORC to DNA replication origins depends on highly conserved basic residues” (Scientific Reports, 2015).
Each block holds one molecule with its values, some of them ahead of it.

Tests used:
ORC (ScORC, ORC hexamer) [1] = biological target: T1, ORC (ScORC, ORC hexamer) (Saccharomyces cerevisiae, UniProt P54784+P54791); test: nitrocellulose filter binding, Scatchard plot
T1 construct: gene ORC1; with Origin recognition complex subunit 2; Origin recognition complex subunit 3; Origin recognition complex subunit 5; Origin recognition complex subunit 6
From the text: (§1) nitrocellulose filter binding, Scatchard plot on ORC (ScORC, ORC hexamer)

ORC (ScORC, ORC hexamer) [2] = biological target: T2, ORC (ScORC, ORC hexamer) (Saccharomyces cerevisiae, UniProt P54784+P54791, P54784:K362A); test: nitrocellulose filter binding, Scatchard plot
T2 construct: gene ORC1; with Origin recognition complex subunit 2; Origin recognition complex subunit 3; Origin recognition complex subunit 5; Origin recognition complex subunit 6
From the text: as §1

ORC (ScORC, ORC hexamer) [3] = biological target: T3, ORC (ScORC, ORC hexamer) (Saccharomyces cerevisiae, UniProt P54784+P54791, P54784:R367A); test: nitrocellulose filter binding, Scatchard plot
T3 construct: gene ORC1; with Origin recognition complex subunit 2; Origin recognition complex subunit 3; Origin recognition complex subunit 5; Origin recognition complex subunit 6
From the text: as §1

[4] = test system: GH-Orc1 301-400 (Saccharomyces cerevisiae); test: EMSA; conditions: competitor DNA; 25 mM HEPES-KOH pH 7.6, 100 mM K glutamate, 5 mM Mg acetate, 5 mM CaCl2, 5 mM DTT, 5% glycerol, 0.1% Triton X-100, 2 mg/ml BSA, 1 mM ATP; 1.6 nM dsDNA or 3 nM …; scale: fold lower affinity than ORC hexamer
[5] = biological target: ORC-1R367A hexamer R367A (Saccharomyces cerevisiae) (UniProt P54784+P32833+P54790+P54791+P50874+P38826); test: EMSA; conditions: 25 mM HEPES-KOH pH 7.6, 100 mM K glutamate, 5 mM Mg acetate, 5 mM CaCl2, 5 mM DTT, 5% glycerol, 0.1% Triton X-100, 2 mg/ml BSA, 1 mM ATP; 1.6 nM dsDNA or 3 nM …
[6] = biological target: ORC-1K362A hexamer K362A (Saccharomyces cerevisiae) (UniProt P54784+P32833+P54790+P54791+P50874+P38826); test: EMSA; conditions: 25 mM HEPES-KOH pH 7.6, 100 mM K glutamate, 5 mM Mg acetate, 5 mM CaCl2, 5 mM DTT, 5% glycerol, 0.1% Triton X-100, 2 mg/ml BSA, 1 mM ATP; 1.6 nM dsDNA or 3 nM …
[7] = biological target: T4, S. cerevisiae origin recognition complex (ORC) hexamer, wild type (S. cerevisiae, UniProt P54784 1-914; P32833 1-620; P54790 1-616; P54791 1-529; P50874 1-479; P38826 …); test: native gel or EMSA; ORC and Cdc6 incubated with Cy5-labeled ARS1 DNA (1.6 nM) and 300 ng GC-rich competitor, 10 min at room temperature, 25 mM HEPES-KOH pH 7.6, 100 mM potassium glutamate, 1 mM ATP; Cdc6-dependent supershift of the ORC-ARS1 complex on a 4% polyacrylamide gel; conditions: both partners purified
T4 construct: Orc1, largest subunit of the S. cerevisiae origin recognition complex; expressed from ORC1-TEV-His; Orc2, subunit of the S. cerevisiae origin recognition complex; Orc3, subunit of the S. cerevisiae origin recognition complex; Orc4, subunit of the S. cerevisiae origin recognition complex; Orc5, subunit of the S. cerevisiae origin recognition complex; Orc6, subunit of the S. cerevisiae origin …

ORC-1R367A hexamer = ORC-1R367A hexamer (Saccharomyces cerevisiae, UniProt P54784;P32833;P54790;P54791;P50874;P38826 1-914;1-620;1-616;1-529;1-479;1-435, R367A); test: EMSA; 1 mM ATP, competitor dsDNA; 25 mM HEPES-KOH pH 7.6, 100 mM K glutamate, 5 mM Mg acetate, 5 mM CaCl2, 5 mM DTT, 5% glycerol, 0.1% Triton X-100, 2 mg/ml BSA, 1 mM ATP; 1.6 nM dsDNA or 3 nM ssDNA, 300 ng GC-rich competitor in 5 ul, 10 min, room temperature; conditions: protein: recombinant; tags: TEV-His on Orc1; copies: 1;1;1;1;1;1; label: 3' Cy5-ddUTP (terminal transferase)
[8] = biological target: ORC hexamer wild-type (Orc1-TEV-His/Orc2/3/4/5/6) (Saccharomyces cerevisiae, UniProt P54784;P32833;P54790;P54791;P50874;P38826 1-914;1-620;1-616;1-529;1-479;1-435); test: as above; conditions: protein: recombinant; tags: TEV-His on Orc1 (C-terminal by name); copies: 1;1;1;1;1;1; label: 3' Cy5-ddUTP (terminal transferase)
ORC-1K362A hexamer = ORC-1K362A hexamer (Saccharomyces cerevisiae, UniProt P54784;P32833;P54790;P54791;P50874;P38826 1-914;1-620;1-616;1-529;1-479;1-435, K362A); test: as above; conditions: protein: recombinant; tags: TEV-His on Orc1; copies: 1;1;1;1;1;1; label: 3' Cy5-ddUTP (terminal transferase)

T2 sequence (P54784 whole entry K362A): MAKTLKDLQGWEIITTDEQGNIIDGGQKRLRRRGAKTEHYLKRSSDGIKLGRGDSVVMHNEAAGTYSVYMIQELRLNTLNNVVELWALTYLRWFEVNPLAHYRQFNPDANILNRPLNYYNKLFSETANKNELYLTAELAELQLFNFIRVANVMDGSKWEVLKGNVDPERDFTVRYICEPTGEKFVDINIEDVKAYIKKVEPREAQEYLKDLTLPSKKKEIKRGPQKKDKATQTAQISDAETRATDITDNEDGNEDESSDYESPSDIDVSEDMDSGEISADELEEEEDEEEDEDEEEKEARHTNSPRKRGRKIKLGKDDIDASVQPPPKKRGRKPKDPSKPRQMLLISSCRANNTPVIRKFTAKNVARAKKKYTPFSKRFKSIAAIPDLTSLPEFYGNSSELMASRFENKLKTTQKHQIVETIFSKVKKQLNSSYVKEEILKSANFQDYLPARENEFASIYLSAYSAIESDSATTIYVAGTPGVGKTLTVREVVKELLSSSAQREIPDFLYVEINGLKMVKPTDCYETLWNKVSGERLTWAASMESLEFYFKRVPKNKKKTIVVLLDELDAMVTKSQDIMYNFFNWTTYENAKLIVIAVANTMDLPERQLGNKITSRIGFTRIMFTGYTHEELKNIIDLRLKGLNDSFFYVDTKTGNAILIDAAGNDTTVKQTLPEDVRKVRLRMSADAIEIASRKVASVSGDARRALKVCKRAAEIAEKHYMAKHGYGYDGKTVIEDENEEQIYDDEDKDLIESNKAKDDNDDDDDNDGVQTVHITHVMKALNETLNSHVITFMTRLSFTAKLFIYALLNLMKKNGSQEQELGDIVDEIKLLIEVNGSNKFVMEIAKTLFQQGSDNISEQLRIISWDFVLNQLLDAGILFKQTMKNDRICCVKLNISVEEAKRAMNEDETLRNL
T2 sequence (P54791 whole entry): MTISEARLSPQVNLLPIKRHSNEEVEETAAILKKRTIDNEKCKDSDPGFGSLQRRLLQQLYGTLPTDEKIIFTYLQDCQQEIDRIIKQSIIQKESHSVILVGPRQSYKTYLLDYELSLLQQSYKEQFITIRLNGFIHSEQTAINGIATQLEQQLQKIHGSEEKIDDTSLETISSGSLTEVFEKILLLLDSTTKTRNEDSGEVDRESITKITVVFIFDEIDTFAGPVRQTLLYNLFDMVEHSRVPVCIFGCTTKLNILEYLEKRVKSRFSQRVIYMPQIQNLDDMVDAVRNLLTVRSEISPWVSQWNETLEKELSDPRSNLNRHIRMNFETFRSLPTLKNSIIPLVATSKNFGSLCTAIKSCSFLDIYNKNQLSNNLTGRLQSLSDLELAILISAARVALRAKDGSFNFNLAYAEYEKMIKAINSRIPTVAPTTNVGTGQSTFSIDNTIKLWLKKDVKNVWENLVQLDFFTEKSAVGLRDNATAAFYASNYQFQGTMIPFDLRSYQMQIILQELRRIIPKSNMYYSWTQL
T2 sequence (P32833 whole entry partner): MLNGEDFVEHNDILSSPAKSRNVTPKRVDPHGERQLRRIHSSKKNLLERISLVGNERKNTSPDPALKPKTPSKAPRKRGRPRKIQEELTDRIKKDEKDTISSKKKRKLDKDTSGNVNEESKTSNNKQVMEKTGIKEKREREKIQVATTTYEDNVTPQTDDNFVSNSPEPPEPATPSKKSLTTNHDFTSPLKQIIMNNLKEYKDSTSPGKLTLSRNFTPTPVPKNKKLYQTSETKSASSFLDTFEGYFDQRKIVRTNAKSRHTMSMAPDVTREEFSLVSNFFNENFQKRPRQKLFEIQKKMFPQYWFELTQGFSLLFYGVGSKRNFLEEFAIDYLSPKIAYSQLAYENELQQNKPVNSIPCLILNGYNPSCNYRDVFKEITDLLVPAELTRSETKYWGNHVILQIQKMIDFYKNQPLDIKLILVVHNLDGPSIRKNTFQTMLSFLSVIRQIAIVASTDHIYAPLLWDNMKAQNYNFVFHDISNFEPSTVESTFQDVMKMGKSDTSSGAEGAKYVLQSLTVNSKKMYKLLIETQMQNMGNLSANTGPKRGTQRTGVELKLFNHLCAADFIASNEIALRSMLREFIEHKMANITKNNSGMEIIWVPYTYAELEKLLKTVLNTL
T2 sequence (P54790 2-616 partner): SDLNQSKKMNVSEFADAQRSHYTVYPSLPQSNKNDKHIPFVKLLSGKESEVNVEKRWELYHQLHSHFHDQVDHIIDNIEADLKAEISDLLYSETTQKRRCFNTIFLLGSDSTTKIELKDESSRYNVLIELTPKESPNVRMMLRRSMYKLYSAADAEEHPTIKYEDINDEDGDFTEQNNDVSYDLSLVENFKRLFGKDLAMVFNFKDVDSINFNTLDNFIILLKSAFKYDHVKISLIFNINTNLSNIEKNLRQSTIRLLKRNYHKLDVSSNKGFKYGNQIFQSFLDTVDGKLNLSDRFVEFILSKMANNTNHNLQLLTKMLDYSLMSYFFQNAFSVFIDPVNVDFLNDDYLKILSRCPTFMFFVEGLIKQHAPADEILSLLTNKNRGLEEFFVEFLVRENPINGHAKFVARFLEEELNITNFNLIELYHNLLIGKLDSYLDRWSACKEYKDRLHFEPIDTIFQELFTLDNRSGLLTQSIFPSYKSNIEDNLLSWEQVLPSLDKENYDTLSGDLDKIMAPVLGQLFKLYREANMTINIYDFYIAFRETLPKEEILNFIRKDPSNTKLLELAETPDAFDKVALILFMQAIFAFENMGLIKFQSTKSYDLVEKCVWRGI
T2 sequence (P50874 whole entry partner): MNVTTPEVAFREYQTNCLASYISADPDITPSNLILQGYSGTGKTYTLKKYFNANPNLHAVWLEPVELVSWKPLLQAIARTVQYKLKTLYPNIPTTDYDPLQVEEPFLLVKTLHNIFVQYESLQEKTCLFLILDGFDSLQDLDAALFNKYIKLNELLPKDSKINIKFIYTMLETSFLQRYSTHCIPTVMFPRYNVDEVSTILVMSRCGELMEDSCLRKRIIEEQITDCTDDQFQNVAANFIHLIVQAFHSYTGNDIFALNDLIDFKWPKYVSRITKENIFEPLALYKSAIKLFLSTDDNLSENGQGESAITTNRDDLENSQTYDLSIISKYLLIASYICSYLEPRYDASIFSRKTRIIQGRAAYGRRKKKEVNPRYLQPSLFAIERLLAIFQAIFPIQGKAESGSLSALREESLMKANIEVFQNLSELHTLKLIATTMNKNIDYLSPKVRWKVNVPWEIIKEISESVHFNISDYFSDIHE
T2 sequence (P38826 whole entry partner): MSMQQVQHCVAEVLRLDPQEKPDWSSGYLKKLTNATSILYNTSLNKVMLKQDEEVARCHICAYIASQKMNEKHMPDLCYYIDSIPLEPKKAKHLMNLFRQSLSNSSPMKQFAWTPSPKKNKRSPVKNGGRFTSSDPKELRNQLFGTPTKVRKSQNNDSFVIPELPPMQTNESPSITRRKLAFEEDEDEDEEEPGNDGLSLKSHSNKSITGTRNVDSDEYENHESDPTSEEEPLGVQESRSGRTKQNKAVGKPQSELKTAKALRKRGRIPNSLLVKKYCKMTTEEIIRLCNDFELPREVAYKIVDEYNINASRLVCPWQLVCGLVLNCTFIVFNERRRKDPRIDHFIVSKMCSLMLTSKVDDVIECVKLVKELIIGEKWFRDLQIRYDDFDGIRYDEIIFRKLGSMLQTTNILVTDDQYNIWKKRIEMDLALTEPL
T1 sequence (P54784 whole entry): as the sequence (P54784 whole entry K362A) above, with A362K counted along it
T1 sequence (P54791 whole entry): as the sequence (P54791 whole entry) above
T1 sequence (P32833 whole entry partner): as the sequence (P32833 whole entry partner) above
T1 sequence (P54790 2-616 partner): as the sequence (P54790 2-616 partner) above
T1 sequence (P50874 whole entry partner): as the sequence (P50874 whole entry partner) above
T1 sequence (P38826 whole entry partner): as the sequence (P38826 whole entry partner) above
T3 sequence (P54784 whole entry R367A): as the sequence (P54784 whole entry K362A) above, with A362K, R367A counted along it
T3 sequence (P54791 whole entry): as the sequence (P54791 whole entry) above
T3 sequence (P32833 whole entry partner): as the sequence (P32833 whole entry partner) above
T3 sequence (P54790 2-616 partner): as the sequence (P54790 2-616 partner) above
T3 sequence (P50874 whole entry partner): as the sequence (P50874 whole entry partner) above
T3 sequence (P38826 whole entry partner): as the sequence (P38826 whole entry partner) above

- Kd (ORC (ScORC, ORC hexamer) [1]): 31 nM
- Kd (ORC (ScORC, ORC hexamer) [2]): 35 nM
- Kd (ORC (ScORC, ORC hexamer) [3]): 32 nM
Molecule: Nc1ncnc2c1ncn2[C@@H]1O[C@H](COP(=O)(O)OP(=O)(O)OP(=O)(O)O)[C@@H](O)[C@H]1O [ATP]

Molecule: ARS1 wild-type fragment
- binding signal [4]: > 100

Molecule: CCCACATGTCAATTTAGTATATTACTGTATATCTAGTTCATTCTTCAAAATAAAGAATGCATAACCATTTTTTTATGTTTTTTCCGGAATTGGCTAAATTCACAAAAAAAAAGAGCATAAAGCGAATTGAATTGTCTCGCCAAGAAAACGCACTGAGAGGACGATTGATCCTCCAGACAAGATCGGAATTTTTACTTTTCTGTTTTTAACGACGTCGG (double strand) [ARS609 fragment]
- binding [5]: binds more weakly
- binding [6]: binds more weakly

Molecule: CCGACGTCAGATCTTAATTTATCTCATGAAGTAATGATACCTCAGCGATGTGCTCGCTCGTTAGTATGCTTCATAAATTCATTATTATTTTTTTTTGGAAGTGTTTTTCGACAAAAGTTGCATTTTTACGAAGGATATGTAAACTCAAGAAGTACTAAATAAATATAAATACAATTCGAAAATTTGAAAAAAGTAGGAGACAACACTTTCCTTCCTCACGAAGAAGTTAAGCTTACATGTGGG (double strand) [ARS306 fragment]
- binding [5]: binds more weakly
- binding [6]: binds more weakly

- binding result [7]: binds
B1: ScCdc6 (natural protein, S. cerevisiae, UniProt P09119 1-513, looked up)
chain: MSAIPITPTKRIRRNLFDDAPATPPRPLKRKKLQFTDVTPESSPEKLQFGSQSIFLRTKALLQKSSELVNLNSSDGALPARTAEYEQVMNFLAKAISEHRSDSLYITGPPGTGKTAQLDMIIRQKFQSLPLSLSTPRSKDVLRHTNPNLQNLSWFELPDGRLESVAVTSINCISLGEPSSIFQKIFDSFQDLNGPTLQIKNMQHLQKFLEPYHKKTTFVVVLDEMDRLLHANTSETQSVRTILELFLLAKLPTVSFVLIGMANSLDMKDRFLSRLNLDRGLLPQTIVFQPYTAEQMYEIVIQKMSSLPTIIFQPMAIKFAAKKCAGNTGDLRKLFDVLRGSIEIYELEKRFLLSPTRGSLNSAQVPLTPTTSPVKKSYPEPQGKIGLNYIAKVFSKFVNNNSTRTRIAKLNIQQKLILCTIIQSLKLNSDATIDESFDHYIKAITKTDTLAPLQRNEFLEICTILETCGLVSIKKTKCKGKTKRFVDKIDVDLDMREFYDEMTKISILKPFLH
notes: Cdc6 of S. cerevisiae; source: E. coli, overexpressed and purified

Molecule: GTTACCATGGCATCGAGTTCTTCAACAAGACTACAATGG (ssDNA) [DL11]
- binding result (ORC-1R367A hexamer): binds
- binding result [8]: binds
- binding result (ORC-1K362A hexamer): binds
